The text below walks through data of US5316935A, “Subtilisin variants suitable for hydrolysis and synthesis in organic media” (California Institute of Technology, priority 1992, dated 1994).

Starred links: 1 amine or outer side, 2 acyl side, 3 side chain; linkers in the order of their positions; H or OH if unused. Residues, ends and D or L forms follow the SMILES beside them. *: point of attachment. pNA = O=[N+]([O-])c1ccc(N*)cc1; Suc = O=C(CCC(=O)[*:2])[*:1]

The target of data set [1] is T1, Bacillus subtilis subtilisin E variant Q103R (Bacillus subtilis, UniProt P04189, A256V/Q209R).
T1 construct: each contain 275 residues; made in house; host or cells: Bacillus subtilis DB428 (vector pKWC), secreted into the medium
T1 sequence (P04189 107-381 Q209R/A256V): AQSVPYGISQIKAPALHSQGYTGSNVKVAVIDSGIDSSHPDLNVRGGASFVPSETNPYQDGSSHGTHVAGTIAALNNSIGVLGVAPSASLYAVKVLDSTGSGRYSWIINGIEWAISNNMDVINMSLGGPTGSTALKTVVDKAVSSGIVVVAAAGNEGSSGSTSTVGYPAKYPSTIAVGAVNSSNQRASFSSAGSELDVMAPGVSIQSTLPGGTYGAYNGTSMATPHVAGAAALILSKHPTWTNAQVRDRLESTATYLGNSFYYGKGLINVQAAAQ
Kind of data set: Amidase activity: hydrolysis of p-nitroanilide peptide substrates. The data set is classed as biochemical. The note with it: 0.1M Tris-HCl, 10 mM CaCl2, pH 8, 37° C. The procedure:
(§1) The amidase activities of subtilisin and derivatives thereof were measured on the substrate succinyl-Ala-Ala-Pro-Phe-p-nitroanilide (sAAPF-pna) at 37° C. in 0.1M Tris-HCl, pH 8.0 and 10 mM CaCl2. Assays were initiated by mixing the enzyme, the substrate and the reaction buffer. The amount of released p-nitroaniline was measured spectrophotometrically at 410 nm as a function of time. KM and kcat values for hydrolysis of sAAPF-pna by the subtilisin variants were obtained by nonlinear regression of the data using the program Enzfitter (Biosoft).
(§2) For activity measurements in mixed buffer (containing DMF), a portion of the aqueous buffer was replaced by the percentage (w/v) of DMF indicated in Table II. Kinetic constants are reported in Table II for the wild-type enzyme and six variants with 3-10 amino acid substitutions in 20% and 40% DMF.
(§3) The effects of different amino acid substitutions at position 103 on amidase activity were investigated. The variants Q103E, Q103K, and Q103S were constructed by PCR site-directed mutagenesis as described in Example VIII. The amidase activities of these variants and the variant Q103R identified by random mutagenesis and screening for enhanced activity in the presence of DMF (Example IV) are compared in Table III. The reactions were carried out in 10% DMF according to the procedures outlined in Examples XI and XII.
(§4) The effects of the Q103R amino acid substitution on amidase activity were investigated for two substrates, succinyl-Ala-Ala-Pro-Phe-p-nitroanilide (negatively-charged succinyl group at the peptide N-terminus) and Ala-Ala-Pro-Phe-p-nitroanilide (positively charged N-terminus) in 10% DMF.

Substrate in data set [2]: C[C@H](NC(=O)CCC(=O)O)C(=O)N[C@@H](C)C(=O)N1CCC[C@H]1C(=O)N[C@@H](Cc1ccccc1)C(=O)Nc1ccc([N+](=O)[O-])cc1
Described as above. The class given is biochemical, Bacillus subtilis. The note with it: other: 0% DMF, 0.1M Tris-HCl, 10 mM CaCl2, pH 8, 37° C. The method, then: as §1, §2

Substrate in data set [3]: C[C@H](N)C(=O)N[C@@H](C)C(=O)N1CCC[C@H]1C(=O)N[C@@H](Cc1ccccc1)C(=O)Nc1ccc([N+](=O)[O-])cc1
Described as above. The data set is classed as biochemical, Bacillus subtilis. The note with it: other: 10% DMF (Table IV), 0.1M Tris-HCl, 10 mM CaCl2, pH 8, 37° C.

Substrate in data set [4]: C[C@H](NC(=O)CCC(=O)O)C(=O)N[C@@H](C)C(=O)N1CCC[C@H]1C(=O)N[C@@H](Cc1ccccc1)C(=O)Nc1ccc([N+](=O)[O-])cc1
Described as above. The data set is classed as biochemical, Bacillus subtilis. The note with it: 0.1M Tris-HCl, 10 mM CaCl2, pH 8, 37° C.

Substrate in data set [5]: C[C@H](NC(=O)CCC(=O)O)C(=O)N[C@@H](C)C(=O)N1CCC[C@H]1C(=O)N[C@@H](Cc1ccccc1)C(=O)Nc1ccc([N+](=O)[O-])cc1
In words: Amidase activity: hydrolysis of p-nitroanilide peptide substrate. The following applies: other: 0% DMF, 0.1M Tris-HCl, 10 mM CaCl2, pH 8, 37° C. The data set is classed as biochemical, Bacillus subtilis. The procedure:
as §1, §2

Substrate in data set [6]: C[C@H](NC(=O)CCC(=O)O)C(=O)N[C@@H](C)C(=O)N1CCC[C@H]1C(=O)N[C@@H](Cc1ccccc1)C(=O)Nc1ccc([N+](=O)[O-])cc1
Described as above. The class given is biochemical, Bacillus subtilis. The note with it: other: 10% DMF, 0.1M Tris-HCl, 10 mM CaCl2, pH 8, 37° C. The method, then:
as §1, §2, §3

Substrate in data set [7]: C[C@H](NC(=O)CCC(=O)O)C(=O)N[C@@H](C)C(=O)N1CCC[C@H]1C(=O)N[C@@H](Cc1ccccc1)C(=O)Nc1ccc([N+](=O)[O-])cc1
In words: Amidase activity: hydrolysis of p-nitroanilide peptide substrates. The data set is classed as biochemical, Bacillus subtilis. The note with it: 0.1M Tris-HCl, 10 mM CaCl2, pH 8, 37° C. The method, then: as §1, §2, §3, §4
This is another data set of the same source.

Take `C[C@H](NC(=O)CCC(=O)O)C(=O)N[C@@H](C)C(=O)N1CCC[C@H]1C(=O)N[C@@H](Cc1ccccc1)C(=O)Nc1ccc([N+](=O)[O-])cc1` [succinyl-Ala-Ala-Pro-Phe-p-nitroanilide] (Suc-AAPF-pNA): in data set [1] (20% DMF), the “kcat /KM” value is listed as 6.8 M^-1 s^-1 × 10^-3.
Turning to `C[C@H](N)C(=O)N[C@@H](C)C(=O)N1CCC[C@H]1C(=O)N[C@@H](Cc1ccccc1)C(=O)Nc1ccc([N+](=O)[O-])cc1` [AAPFpna, Ala-Ala-Pro-Phe-p-nitroanilide] (H-AAPF-pNA), in data set [1] (10% DMF (Table IV)), the Michaelis constant (Km) is not below 37000 µM, the kcat was not below 2.6 s⁻¹ and the “kcat /KM” value came to 0.07 M^-1 s^-1 × 10^3.

B1: Bacillus subtilis subtilisin E (subtilisin I168, aprA gene product), wild type, SEQ ID NO: 1 (Bacillus subtilis subsp. subtilis str. 168) (protein)
chain: AQSVPYGISQIKAPALHSQGYTGSNVKVAVIDSGIDSSHPDLNVRGGASFVPSETNPYQDGSSHGTHVAGTIAALNNSIGVLGVAPSASLYAVKVLDSTGSGQYSWIINGIEWAISNNMDVINMSLGGPTGSTALKTVVDKAVSSGIVVAAAAGNEGSSGSTSTVGYPAKYPSTIAVGAVNSSNQRASFSSAGSELDVMAPGVSIQSTLPGGTYGAYNGTSMATPHVAGAAALILSKHPTWTNAQVRDRLESTATYLGNSFYYGKGLINVQAAAQ
notes: each contain 275 residues; made in house; host or cells: Bacillus subtilis DB428 (vector pKWC), secreted into the medium
As to B1, the Km in data set [2] was 560 µM; in data set [3], 7800 µM; in data set [4] (other: 10% DMF (Table III)), 2900 µM; in data set [4] (other: 10% DMF (Table IV)), 510 µM. Also, the kcat in data set [2] amounted to 21 s⁻¹; in data set [3], 0.83 s⁻¹; in data set [4] (other: 10% DMF (Table III)), 20 s⁻¹; in data set [4] (other: 10% DMF (Table IV)), 21 s⁻¹. Moreover, the kcat/Km is listed as 38 M^-1 s^-1 × 10^3 in data set [2], 0.11 M^-1 s^-1 × 10^3 in data set [3], 7.0 M^-1 s^-1 × 10^3 in data set [4] (other: 10% DMF (Table III)) and 41 M^-1 s^-1 × 10^3 in data set [4] (other: 10% DMF (Table IV)).

B2: Bacillus subtilis subtilisin E variant 4M (D60N + Q103R + N218S + D97G) (Bacillus subtilis subsp. subtilis str. 168; A256V/D166N/D203G/N324S/Q209R) (protein)
chain: AQSVPYGISQIKAPALHSQGYTGSNVKVAVIDSGIDSSHPDLNVRGGASFVPSETNPYQNGSSHGTHVAGTIAALNNSIGVLGVAPSASLYAVKVLGSTGSGRYSWIINGIEWAISNNMDVINMSLGGPTGSTALKTVVDKAVSSGIVVVAAAGNEGSSGSTSTVGYPAKYPSTIAVGAVNSSNQRASFSSAGSELDVMAPGVSIQSTLPGGTYGAYSGTSMATPHVAGAAALILSKHPTWTNAQVRDRLESTATYLGNSFYYGKGLINVQAAAQ
notes: as for B1
For B2, in data set [5], the Km came out at 170 µM, the turnover number (kcat) came to 43 s⁻¹ and the kcat/Km is recorded as 249 M^-1 s^-1 × 10^3.

B3: Bacillus subtilis subtilisin E variant 7M (D60N + Q103R + N218S + D97G + E156G + N181S + G131D) (Bacillus subtilis subsp. subtilis str. 168; … (protein)
chain: AQSVPYGISQIKAPALHSQGYTGSNVKVAVIDSGIDSSHPDLNVRGGASFVPSETNPYQNGSSHGTHVAGTIAALNNSIGVLGVAPSASLYAVKVLGSTGSGRYSWIINGIEWAISNNMDVINMSLGGPTDSTALKTVVDKAVSSGIVVVAAAGNGGSSGSTSTVGYPAKYPSTIAVGAVSSSNQRASFSSAGSELDVMAPGVSIQSTLPGGTYGAYSGTSMATPHVAGAAALILSKHPTWTNAQVRDRLESTATYLGNSFYYGKGLINVQAAAQ
In the case of B3, in data set [5], the Km amounted to 30 µM, the turnover number (kcat) came out at 18 s⁻¹ and the kcat/Km worked out at 606 M^-1 s^-1 × 10^3.

B4: Bacillus subtilis subtilisin E variant Q103S (Bacillus subtilis subsp. subtilis str. 168; A256V/Q209S) (protein)
chain: AQSVPYGISQIKAPALHSQGYTGSNVKVAVIDSGIDSSHPDLNVRGGASFVPSETNPYQDGSSHGTHVAGTIAALNNSIGVLGVAPSASLYAVKVLDSTGSGSYSWIINGIEWAISNNMDVINMSLGGPTGSTALKTVVDKAVSSGIVVVAAAGNEGSSGSTSTVGYPAKYPSTIAVGAVNSSNQRASFSSAGSELDVMAPGVSIQSTLPGGTYGAYNGTSMATPHVAGAAALILSKHPTWTNAQVRDRLESTATYLGNSFYYGKGLINVQAAAQ
notes: as for B1
For B4, in data set [6], the Michaelis-Menten constant (Km) amounted to 3000 µM, the kcat is 20 s⁻¹ and the kcat/Km worked out at 7.0 M^-1 s^-1 × 10^3.

B5: Bacillus subtilis subtilisin E variant Q103R (Bacillus subtilis subsp. subtilis str. 168; A256V/Q209R) (protein)
chain: AQSVPYGISQIKAPALHSQGYTGSNVKVAVIDSGIDSSHPDLNVRGGASFVPSETNPYQDGSSHGTHVAGTIAALNNSIGVLGVAPSASLYAVKVLDSTGSGRYSWIINGIEWAISNNMDVINMSLGGPTGSTALKTVVDKAVSSGIVVVAAAGNEGSSGSTSTVGYPAKYPSTIAVGAVNSSNQRASFSSAGSELDVMAPGVSIQSTLPGGTYGAYNGTSMATPHVAGAAALILSKHPTWTNAQVRDRLESTATYLGNSFYYGKGLINVQAAAQ
notes: as for B1
Regarding B5, in data set [7] (other: 0% DMF), the Michaelis-Menten constant (Km) amounted to 250 µM and the kcat was 31 s⁻¹. For the same molecule, in data set [7] (other: 10% DMF (Table III)), the Michaelis-Menten constant (Km) is 1300 µM, the turnover number (kcat) worked out at 34 s⁻¹ and the kcat/Km is recorded as 26 M^-1 s^-1 × 10^3.

B6: Bacillus subtilis subtilisin E variant 3M (D60N + Q103R + N218S) (Bacillus subtilis subsp. subtilis str. 168; A256V/D166N/N324S/Q209R) (protein)
chain: AQSVPYGISQIKAPALHSQGYTGSNVKVAVIDSGIDSSHPDLNVRGGASFVPSETNPYQNGSSHGTHVAGTIAALNNSIGVLGVAPSASLYAVKVLDSTGSGRYSWIINGIEWAISNNMDVINMSLGGPTGSTALKTVVDKAVSSGIVVVAAAGNEGSSGSTSTVGYPAKYPSTIAVGAVNSSNQRASFSSAGSELDVMAPGVSIQSTLPGGTYGAYSGTSMATPHVAGAAALILSKHPTWTNAQVRDRLESTATYLGNSFYYGKGLINVQAAAQ
notes: as for B1
For the molecule B6, in data set [5], the Michaelis-Menten constant (Km) was 110 µM, the kcat amounted to 40 s⁻¹ and the kcat/Km is recorded as 360 M^-1 s^-1 × 10^3.

B7: Bacillus subtilis subtilisin E variant 6M (D60N + Q103R + N218S + D97G + E156G + N181S) (Bacillus subtilis subsp. subtilis str. 168; … (protein)
chain: AQSVPYGISQIKAPALHSQGYTGSNVKVAVIDSGIDSSHPDLNVRGGASFVPSETNPYQNGSSHGTHVAGTIAALNNSIGVLGVAPSASLYAVKVLGSTGSGRYSWIINGIEWAISNNMDVINMSLGGPTGSTALKTVVDKAVSSGIVVVAAAGNGGSSGSTSTVGYPAKYPSTIAVGAVSSSNQRASFSSAGSELDVMAPGVSIQSTLPGGTYGAYSGTSMATPHVAGAAALILSKHPTWTNAQVRDRLESTATYLGNSFYYGKGLINVQAAAQ
As for B7, in data set [5], the Km amounted to 40 µM, the kcat was determined as 12 s⁻¹ and the kcat/Km stood at 268 M^-1 s^-1 × 10^3.

One may read the Km as the concentration of substrate that gives half-maximal velocity. The kcat is the maximal rate divided by the concentration of active sites.
